Numbered stars: 1 amine (or outer) side, 2 acyl side, 3 side chain; on linkers, the order of the positions; unused ones are H or OH. Square brackets hold non-standard residues; d marks the D form. Side chains are listed from the residue outwards. Ends that are not written are not given here. * marks the point of attachment. C20 diacid = O=C(O)CCCCCCCCCCCCCCCCCCC(=O)*; γGlu = O=C(O)[C@H](CCC(=O)[*:2])N[*:1]; AEEA = NCCOCCOCC(=O)O; Aib = CC(C)(N)C(=O)O
Target: T1, human gastric inhibitory peptide receptor (hGIPR) (Homo sapiens, UniProt P48546)
T1 construct: expressed in transfected cells; host or cells: HEK293
T1 sequence (P48546 22-466): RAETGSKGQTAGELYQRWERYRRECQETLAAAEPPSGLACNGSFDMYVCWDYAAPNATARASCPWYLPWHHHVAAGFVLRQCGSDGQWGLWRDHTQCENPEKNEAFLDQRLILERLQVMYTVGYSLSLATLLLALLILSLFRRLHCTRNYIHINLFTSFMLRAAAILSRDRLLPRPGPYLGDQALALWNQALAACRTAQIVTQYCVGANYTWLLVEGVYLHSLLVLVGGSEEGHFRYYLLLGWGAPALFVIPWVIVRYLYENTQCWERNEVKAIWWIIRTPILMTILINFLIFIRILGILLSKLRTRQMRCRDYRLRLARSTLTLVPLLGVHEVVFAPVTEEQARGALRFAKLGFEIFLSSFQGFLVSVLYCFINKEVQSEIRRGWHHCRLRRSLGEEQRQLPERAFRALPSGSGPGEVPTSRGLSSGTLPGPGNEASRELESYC
Assay: cAMP pharmacological functional assay in presence of 0.1% casein, hGIPR
Type: cell-based
Conditions: ratio of hGIPR to hGLP1R cAMP EC50 ratios

Row | Substance | [hGIPR/hGLP1R] EC50 Ratio
1 | Y-Aib-EGTFTSDYSILLDKK((2-[2-(2-Amino-ethoxy)-ethoxy]-acetyl)2-(γGlu)-CO—(CH2)18—CO2H)AQ-Aib-AFIEYLI-(D-Glu)-GGPSSGAPPPS-NH2 (YXEGTFTSDYSILLDKKAQXAFIEYLIXGGPSSGAPPPS; Aib, D-Glu; K lipidated C20 diacid-γGlu-AEEA2; C-terminal amide; (2)..(2) Xaa at position 2 is Aib; MOD_RES (17)..(17) Lys at position 17 is chemically modified by conjugation of the epsilon-amino group of the Lys side chain with (2-[2-(2-amino-ethoxy)-ethoxy]-acetyl)2-(gamma-Glu)-CO-(CH2)18- CO2H; (20)..(20) Xaa at position 20 is Aib; (28)..(28) Xaa at position 28 is D-Glu; MOD_RES (39)..(39) Ser at position 39 is amidated) [Peptide 83] | 4.84
2 | Y-Aib-EGTFTSDYSILLDKK((2-[2-(2-Amino-ethoxy)-ethoxy]-acetyl)2-(γGlu)-CO—(CH2)18—CO2H)AQ-Aib-AFIEYLIEGG-NH2 (Y[Aib]EGTFTSDYSILLDKK([AEEA-AEEA-γGlu-C20 diacid])AQ[Aib]AFIEYLIEGG-NH2; N-terminus assumed; SMILES CC[C@H](C)[C@H](NC(=O)[C@H](CC(C)C)NC(=O)[C@H](Cc1ccc(O)cc1)NC(=O)[C@H](CCC(=O)O)NC(=O)[C@@H](NC(=O)[C@H](Cc1ccccc1)NC(=O)[C@H](C)NC(=O)C(C)(C)NC(=O)[C@H](CCC(N)=O)NC(=O)[C@H](C)NC(=O)[C@H](CCCCNC(=O)COCCOCCNC(=O)COCCOCCNC(=O)CC[C@H](NC(=O)CCCCCCCCCCCCCCCCCCC(=O)O)C(=O)O)NC(=O)[C@H](CCCCN)NC(=O)[C@H](CC(=O)O)NC(=O)[C@H](CC(C)C)NC(=O)[C@H](CC(C)C)NC(=O)[C@@H](NC(=O)[C@H](CO)NC(=O)[C@H](Cc1ccc(O)cc1)NC(=O)[C@H](CC(=O)O)NC(=O)[C@H](CO)NC(=O)[C@@H](NC(=O)[C@H](Cc1ccccc1)NC(=O)[C@@H](NC(=O)CNC(=O)[C@H](CCC(=O)O)NC(=O)C(C)(C)NC(=O)[C@@H](N)Cc1ccc(O)cc1)[C@@H](C)O)[C@@H](C)O)[C@@H](C)CC)[C@@H](C)CC)C(=O)N[C@@H](CCC(=O)O)C(=O)NCC(=O)NCC(N)=O) [Peptide 51] | 3.97
3 | Y-Aib-EGTFTSDYSILLDKK((2-[2-(2-Amino-ethoxy)-ethoxy]-acetyl)2-(γGlu)-CO—(CH2)18—CO2H)AQ-Aib-AFIEYLIEGGPSSG-NH2 (Y[Aib]EGTFTSDYSILLDKK([AEEA-AEEA-γGlu-C20 diacid])AQ[Aib]AFIEYLIEGGPSSG-NH2; N-terminus assumed; SMILES CC[C@H](C)[C@H](NC(=O)[C@H](CC(C)C)NC(=O)[C@H](Cc1ccc(O)cc1)NC(=O)[C@H](CCC(=O)O)NC(=O)[C@@H](NC(=O)[C@H](Cc1ccccc1)NC(=O)[C@H](C)NC(=O)C(C)(C)NC(=O)[C@H](CCC(N)=O)NC(=O)[C@H](C)NC(=O)[C@H](CCCCNC(=O)COCCOCCNC(=O)COCCOCCNC(=O)CC[C@H](NC(=O)CCCCCCCCCCCCCCCCCCC(=O)O)C(=O)O)NC(=O)[C@H](CCCCN)NC(=O)[C@H](CC(=O)O)NC(=O)[C@H](CC(C)C)NC(=O)[C@H](CC(C)C)NC(=O)[C@@H](NC(=O)[C@H](CO)NC(=O)[C@H](Cc1ccc(O)cc1)NC(=O)[C@H](CC(=O)O)NC(=O)[C@H](CO)NC(=O)[C@@H](NC(=O)[C@H](Cc1ccccc1)NC(=O)[C@@H](NC(=O)CNC(=O)[C@H](CCC(=O)O)NC(=O)C(C)(C)NC(=O)[C@@H](N)Cc1ccc(O)cc1)[C@@H](C)O)[C@@H](C)O)[C@@H](C)CC)[C@@H](C)CC)C(=O)N[C@@H](CCC(=O)O)C(=O)NCC(=O)NCC(=O)N1CCC[C@H]1C(=O)N[C@@H](CO)C(=O)N[C@@H](CO)C(=O)NCC(N)=O) [Peptide 50] | 2.90
4 | Y-Aib-EGTFTSDYSILLDSK((2-[2-(2-Amino-ethoxy)-ethoxy]-acetyl)2-(γGlu)-CO—(CH2)18—CO2H)AQ-Aib-AFIEYLIEGGPSSGAPPPS-NH2 (Y[Aib]EGTFTSDYSILLDSK([AEEA-AEEA-γGlu-C20 diacid])AQ[Aib]AFIEYLIEGGPSSGAPPPS-NH2; N-terminus assumed; SMILES CC[C@H](C)[C@H](NC(=O)[C@H](CC(C)C)NC(=O)[C@H](Cc1ccc(O)cc1)NC(=O)[C@H](CCC(=O)O)NC(=O)[C@@H](NC(=O)[C@H](Cc1ccccc1)NC(=O)[C@H](C)NC(=O)C(C)(C)NC(=O)[C@H](CCC(N)=O)NC(=O)[C@H](C)NC(=O)[C@H](CCCCNC(=O)COCCOCCNC(=O)COCCOCCNC(=O)CC[C@H](NC(=O)CCCCCCCCCCCCCCCCCCC(=O)O)C(=O)O)NC(=O)[C@H](CO)NC(=O)[C@H](CC(=O)O)NC(=O)[C@H](CC(C)C)NC(=O)[C@H](CC(C)C)NC(=O)[C@@H](NC(=O)[C@H](CO)NC(=O)[C@H](Cc1ccc(O)cc1)NC(=O)[C@H](CC(=O)O)NC(=O)[C@H](CO)NC(=O)[C@@H](NC(=O)[C@H](Cc1ccccc1)NC(=O)[C@@H](NC(=O)CNC(=O)[C@H](CCC(=O)O)NC(=O)C(C)(C)NC(=O)[C@@H](N)Cc1ccc(O)cc1)[C@@H](C)O)[C@@H](C)O)[C@@H](C)CC)[C@@H](C)CC)C(=O)N[C@@H](CCC(=O)O)C(=O)NCC(=O)NCC(=O)N1CCC[C@H]1C(=O)N[C@@H](CO)C(=O)N[C@@H](CO)C(=O)NCC(=O)N[C@@H](C)C(=O)N1CCC[C@H]1C(=O)N1CCC[C@H]1C(=O)N1CCC[C@H]1C(=O)N[C@@H](CO)C(N)=O) [Peptide 9] | 2.45
5 | Y-Aib-EGTFTSDYSK((2-[2-(2-Amino-ethoxy)-ethoxy]-acetyl)2-(γGlu)-CO—(CH2)18—CO2H)LLDKIAQ-Aib-AFIEYLIEGGPSSGAPPPS-NH2 (Y[Aib]EGTFTSDYSK([AEEA-AEEA-γGlu-C20 diacid])LLDKIAQ[Aib]AFIEYLIEGGPSSGAPPPS-NH2; N-terminus assumed; SMILES CC[C@H](C)[C@H](NC(=O)[C@H](CCCCN)NC(=O)[C@H](CC(=O)O)NC(=O)[C@H](CC(C)C)NC(=O)[C@H](CC(C)C)NC(=O)[C@H](CCCCNC(=O)COCCOCCNC(=O)COCCOCCNC(=O)CC[C@H](NC(=O)CCCCCCCCCCCCCCCCCCC(=O)O)C(=O)O)NC(=O)[C@H](CO)NC(=O)[C@H](Cc1ccc(O)cc1)NC(=O)[C@H](CC(=O)O)NC(=O)[C@H](CO)NC(=O)[C@@H](NC(=O)[C@H](Cc1ccccc1)NC(=O)[C@@H](NC(=O)CNC(=O)[C@H](CCC(=O)O)NC(=O)C(C)(C)NC(=O)[C@@H](N)Cc1ccc(O)cc1)[C@@H](C)O)[C@@H](C)O)C(=O)N[C@@H](C)C(=O)N[C@@H](CCC(N)=O)C(=O)NC(C)(C)C(=O)N[C@@H](C)C(=O)N[C@@H](Cc1ccccc1)C(=O)N[C@H](C(=O)N[C@@H](CCC(=O)O)C(=O)N[C@@H](Cc1ccc(O)cc1)C(=O)N[C@@H](CC(C)C)C(=O)N[C@H](C(=O)N[C@@H](CCC(=O)O)C(=O)NCC(=O)NCC(=O)N1CCC[C@H]1C(=O)N[C@@H](CO)C(=O)N[C@@H](CO)C(=O)NCC(=O)N[C@@H](C)C(=O)N1CCC[C@H]1C(=O)N1CCC[C@H]1C(=O)N1CCC[C@H]1C(=O)N[C@@H](CO)C(N)=O)[C@@H](C)CC)[C@@H](C)CC) [Peptide 25] | 3.23

From patent US12295987B2, “Method of using a GIP/GLP1 co-agonist for diabetes” (Eli Lilly and Company, priority 2018, dated 2025)
